Consider three substances from US11255842B2, “Methods for detecting neutralizing antibodies to parathyroid hormone (PTH) and parathyroid hormone-related peptide (PTHRP) analog” (Radius Health, Inc., priority 2019, dated 2022).

For data set [1] the following is noted: in vivo; cited from earlier work.
For data set [2], the target named is T1, PTH1R (Rattus norvegicus, UniProt P25961).
T1 construct: any cells that express PTH1R and allows the induction of cAMP signaling; host or cells: UMR-106 rat osteosarcoma cells
T1 sequence (P25961 27-591): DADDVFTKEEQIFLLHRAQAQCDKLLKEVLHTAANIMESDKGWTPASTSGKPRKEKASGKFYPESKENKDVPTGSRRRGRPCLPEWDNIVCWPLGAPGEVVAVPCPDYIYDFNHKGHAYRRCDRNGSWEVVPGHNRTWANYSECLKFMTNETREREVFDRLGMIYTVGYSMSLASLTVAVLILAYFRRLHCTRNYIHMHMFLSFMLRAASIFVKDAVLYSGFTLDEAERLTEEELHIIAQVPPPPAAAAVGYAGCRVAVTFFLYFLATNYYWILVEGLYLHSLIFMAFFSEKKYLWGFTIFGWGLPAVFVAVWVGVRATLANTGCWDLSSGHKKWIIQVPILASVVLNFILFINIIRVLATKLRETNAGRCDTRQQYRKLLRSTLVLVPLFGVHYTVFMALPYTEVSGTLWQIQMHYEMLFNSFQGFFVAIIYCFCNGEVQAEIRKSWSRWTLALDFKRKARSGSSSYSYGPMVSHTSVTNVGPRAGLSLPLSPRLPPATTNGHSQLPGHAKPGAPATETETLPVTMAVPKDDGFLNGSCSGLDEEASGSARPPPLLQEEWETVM
Put plainly: PTH dose response, cAMP induction in UMR-106 cells in 25% pooled human serum. In kind it is cell-based. The following applies: interpolated from curve fit, rounded. On the procedure: (§1) UMR-106 cells are maintained in growth medium (UMR-GM, Dulbecco's Modified Eagle's Medium (DMEM) containing 10% Fetal Bovine Serum, 1% Pen-Strep (10 k units Penicillin—10 k ug/mL Streptomycin) and 1% L-glutamine) in 75-150 cm^2 tissue culture flasks until ready for use. Cells are split at a ratio between 1:4 and 1:20 when growth reaches ≥70% confluence for routing culture maintenance. Prior to initiating an assay, cells are plated in sub-culturing flasks (25 cm^2 to 150 cm^2) at a density of 10^6 cells/5 cm^2 (example 5e6 cells for T-75). The following day, flasks are starved with assay medium (UMR-Am, Phenol Red-Free DMEM, containing 1% Bovine Serum Albumin). The following day validation samples and antibody controls are pre-incubated with PTH peptide for a minimum of 30 minutes. The validation samples and controls are adjusted such that the final assay concentration of serum is equal to the assay minimum required dilution of 1:4. Twenty microliters of samples and/or controls are placed on a MSD cAMP assay plate. […] Forty microliters of the cell suspension are added to the cAMP assay plate. […] One hundred microliters of 2×MSD Read Buffer T are then added to the plates and plates are read immediately on an MSD 6000 or 56000 Sector Imager. […]

The target in data set [3] is T1, PTH1R. Put plainly: PTHrP dose response, cAMP induction in UMR-106 cells. It is filed as cell-based. The note with it: interpolated from curve fit, rounded. On the procedure:
as §1, with “PTHrP” for “PTH peptide”, “S6000” for “56000”

With “Abaloparatide: parathyroid hormone-related peptide (PTHrP) (1-34) analog which acts as a PTH1 receptor (PTH1R) agonist”, in data set [1], the “antibody-positive patients who developed neutralizing antibodies to Abaloparatide” value is 68%, the “patients who developed anti-Abaloparatide antibodies” value was 49%, the “patients who developed cross-reactivity to PTHrP” value is 2.3% and the “patients who developed cross-reactivity to parathyroid hormone (PTH)” value was 0%. The “patients who developed neutralizing antibodies to PTHrP” value in data set [1] was 43%.

For “PTH: Parathyroid Hormone Peptide (1-34)(Human), Phoenix Pharmaceuticals P/N 055-08”, in the data set with PTH1R [2], the “EC20 of the PTH response” value stood at 0.728 ng/mL and the “EC30 of the PTH response” value was determined as 0.436 ng/mL.

For “PTHrP: PTHrP (1-34)(Human, Rat, Mouse) peptide, Phoenix Pharmaceuticals P/N 056-04”, in the data set with PTH1R [3], the “EC20 of the PTHrP response” value was 0.728 ng/mL and the “EC30 of the PTHrP response” value was found to be 0.436 ng/mL.
